This assay concerns the target GST. Description: AUC; sedimentation velocity, 40 μM GST, 25 mM HEPES pH 7.4, 500 mM NaCl, 4°C.

Chain of GST (P08515 2-218): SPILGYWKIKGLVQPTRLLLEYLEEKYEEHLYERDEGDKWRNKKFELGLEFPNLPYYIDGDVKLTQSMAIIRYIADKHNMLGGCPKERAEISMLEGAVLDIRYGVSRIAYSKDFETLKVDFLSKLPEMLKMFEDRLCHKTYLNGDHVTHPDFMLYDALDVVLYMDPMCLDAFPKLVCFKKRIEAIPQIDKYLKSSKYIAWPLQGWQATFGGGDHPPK

Substance GST came in with a stoichiometry N of 2.

The values above are taken from paper PMC7308479.
